Assay [1] deals with CmCalS1 of 'Dongyangshenli' (Cucurbita moschata ('Dongyangshenli')).
The target in assay [2] is CmCalS1 of figleaf gourd (Cucurbita ficifolia (figleaf gourd)).

This note sets out measurements from paper PMC10873582.

In turn, “CmNAC100L1 of 'Dongyangshenli' (natural protein)” registered a CmCalS1 enzyme activity in vitro with CmNAC100L1 added (CmNAC100L1 3.5 ng, CmCalS1 85 ng); 18.61 U L^-1 without CmNAC100L1 in assay [1] of 47.8 U L^-1.
As for “CmNAC100L1 of figleaf gourd (natural protein)”, the CmCalS1 enzyme activity in vitro with CmNAC100L1 added (CmNAC100L1 3.5 ng, CmCalS1 85 ng); 10.33 U L^-1 without CmNAC100L1 in assay [2] is 3.23 U L^-1.
